{"source": "the supplement of paper PMC10724198", "tested_on": "Saccharomyces cerevisiae", "assay": "protein stability index of tFT-peptide fusion (C-terminal peptide) (PSI (0-1 scale)); higher = more stable (slower turnover)", "details": "temperature: 30 C", "procedure": "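MPS profiling in S. cerevisiae of the yeast C-terminome library: the last 12 aa of each annotated ORF are fused to the C-terminus of a sfGFP-mCherry timer, after a GGGS linker. Cells are FACS-sorted into 8 mCherry/sfGFP bins and deep-sequenced. PSI runs from 0 (unstable) to 1 (stable); wild type and das1Δ backgrounds, two technical replicates each.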", "key": {"[1]": {"details": "genetic background: das1 deletion"}}, "note": "± gives the standard deviation of the averaged measurements.", "data": [{"sequence": "KCIRGGVFLWII [YGL014C-A C-terminal 12 aa]", "values": [{"measurement": "protein stability index", "setting": "[1]", "value": "0.605 ± 0.019"}, {"measurement": "protein stability index", "setting": "genetic background: wild type", "value": "0.309 ± 0.0041"}]}, {"sequence": "KILKGAEKKPQL [CNA1 C-terminal 12 aa]", "values": [{"measurement": "protein stability index", "setting": "[1]", "value": "0.689 ± 0.0099"}, {"measurement": "protein stability index", "setting": "genetic background: wild type", "value": "0.707 ± 0.022"}]}, {"sequence": "DRIESSSGRISW [SPC110 C-terminal 12 aa]", "values": [{"measurement": "protein stability index", "setting": "[1]", "value": "0.702 ± 0.022"}, {"measurement": "protein stability index", "setting": "genetic background: wild type", "value": "0.681 ± 0.028"}]}, {"sequence": "TEIPYKPFTRQP [YOR293C-A C-terminal 12 aa]", "values": [{"measurement": "protein stability index", "setting": "[1]", "value": "0.724 ± 0.0085"}, {"measurement": "protein stability index", "setting": "genetic background: wild type", "value": "0.739 ± 0.013"}]}, {"sequence": "IPPLIWLRKKRC [PUL3 C-terminal 12 aa]", "values": [{"measurement": "protein stability index", "setting": "[1]", "value": "0.69553 ± 0.00032"}, {"measurement": "protein stability index", "setting": "genetic background: wild type", "value": "0.664 ± 0.0097"}]}, {"sequence": "NSKSNGNLFNSQ [NDD1 C-terminal 12 aa]", "values": [{"measurement": "protein stability index", "setting": "[1]", "value": "0.72 ± 0.015"}, {"measurement": "protein stability index", "setting": "genetic background: wild type", "value": "0.682 ± 0.015"}]}, {"sequence": "ANGTSPGVHVRE [IRC15 C-terminal 12 aa]", "values": [{"measurement": "protein stability index", "setting": "[1]", "value": "0.693 ± 0.0096"}, {"measurement": "protein stability index", "setting": "genetic background: wild type", "value": "0.678 ± 0.017"}]}, {"sequence": "GNLPQPVFQPLL [VHR1 C-terminal 12 aa]", "values": [{"measurement": "protein stability index", "setting": "[1]", "value": "0.701 ± 0.0019"}, {"measurement": "protein stability index", "setting": "genetic background: wild type", "value": "0.6795 ± 0.0033"}]}, {"sequence": "NPSLRQSRIQGW [YGR161W-C C-terminal 12 aa]", "values": [{"measurement": "protein stability index", "setting": "[1]", "value": "0.725 ± 0.005"}, {"measurement": "protein stability index", "setting": "genetic background: wild type", "value": "0.731 ± 0.034"}]}, {"sequence": "MDGFNDPFAAAA [GIP2 C-terminal 12 aa]", "values": [{"measurement": "protein stability index", "setting": "[1]", "value": "0.736 ± 0.028"}, {"measurement": "protein stability index", "setting": "genetic background: wild type", "value": "0.752 ± 0.072"}]}, {"sequence": "SKPALGSCLYEL [GAL1 C-terminal 12 aa]", "values": [{"measurement": "protein stability index", "setting": "[1]", "value": "0.6989 ± 0.0023"}, {"measurement": "protein stability index", "setting": "genetic background: wild type", "value": "0.687 ± 0.012"}]}, {"sequence": "VPPRSASASSQR [SPC97 C-terminal 12 aa]", "values": [{"measurement": "protein stability index", "setting": "[1]", "value": "0.689 ± 0.018"}, {"measurement": "protein stability index", "setting": "genetic background: wild type", "value": "0.684 ± 0.015"}]}, {"sequence": "DDDEMDIEFEDV [TFA1 C-terminal 12 aa]", "values": [{"measurement": "protein stability index", "setting": "[1]", "value": "0.71135 ± 0.00066"}, {"measurement": "protein stability index", "setting": "genetic background: wild type", "value": "0.739 ± 0.01"}]}, {"sequence": "KLENDISVKVED [NTG1 C-terminal 12 aa]", "values": [{"measurement": "protein stability index", "setting": "[1]", "value": "0.6863 ± 0.0054"}, {"measurement": "protein stability index", "setting": "genetic background: wild type", "value": "0.674 ± 0.014"}]}, {"sequence": "RNKKKRFSWVGY [LAA2 C-terminal 12 aa]", "values": [{"measurement": "protein stability index", "setting": "[1]", "value": "0.699 ± 0.066"}, {"measurement": "protein stability index", "setting": "genetic background: wild type", "value": "0.661 ± 0.044"}]}, {"sequence": "LLGENLSDMPSL [RDS1 C-terminal 12 aa]", "values": [{"measurement": "protein stability index", "setting": "[1]", "value": "0.6893 ± 0.0025"}, {"measurement": "protein stability index", "setting": "genetic background: wild type", "value": "0.693 ± 0.021"}]}, {"sequence": "GVVKFNSEHYRD [SAP185 C-terminal 12 aa]", "values": [{"measurement": "protein stability index", "setting": "[1]", "value": "0.721 ± 0.045"}, {"measurement": "protein stability index", "setting": "genetic background: wild type", "value": "0.668 ± 0.034"}]}, {"sequence": "SVFIASLLLAII [FLO1 C-terminal 12 aa]", "values": [{"measurement": "protein stability index", "setting": "[1]", "value": "0.31 ± 0.0059"}, {"measurement": "protein stability index", "setting": "genetic background: wild type", "value": "0.323 ± 0.021"}]}, {"sequence": "SNLALAGGAFRP [TAF5 C-terminal 12 aa]", "values": [{"measurement": "protein stability index", "setting": "[1]", "value": "0.711 ± 0.0013"}, {"measurement": "protein stability index", "setting": "genetic background: wild type", "value": "0.688 ± 0.016"}]}, {"sequence": "LKTSGRYQEDVW [NCP1 C-terminal 12 aa]", "values": [{"measurement": "protein stability index", "setting": "[1]", "value": "0.706 ± 0.02"}, {"measurement": "protein stability index", "setting": "genetic background: wild type", "value": "0.702 ± 0.02"}]}, {"sequence": "WAINESEGYGFR [HUL4 C-terminal 12 aa]", "values": [{"measurement": "protein stability index", "setting": "[1]", "value": "0.727 ± 0.016"}, {"measurement": "protein stability index", "setting": "genetic background: wild type", "value": "0.708 ± 0.051"}]}, {"sequence": "KWKKNKKRKFTK [UBP10 C-terminal 12 aa]", "values": [{"measurement": "protein stability index", "setting": "[1]", "value": "0.729 ± 0.024"}, {"measurement": "protein stability index", "setting": "genetic background: wild type", "value": "0.6898 ± 0.0066"}]}, {"sequence": "ELTLFLSYKSYS [YGR045C C-terminal 12 aa]", "values": [{"measurement": "protein stability index", "setting": "[1]", "value": "0.683 ± 0.02"}, {"measurement": "protein stability index", "setting": "genetic background: wild type", "value": "0.64 ± 0.017"}]}, {"sequence": "GQLTTDEETCIE [RTR2 C-terminal 12 aa]", "values": [{"measurement": "protein stability index", "setting": "[1]", "value": "0.6793 ± 0.0044"}, {"measurement": "protein stability index", "setting": "genetic background: wild type", "value": "0.726 ± 0.034"}]}, {"sequence": "CYYKTQKSQISN [SIP1 C-terminal 12 aa]", "values": [{"measurement": "protein stability index", "setting": "[1]", "value": "0.715 ± 0.011"}, {"measurement": "protein stability index", "setting": "genetic background: wild type", "value": "0.727 ± 0.016"}]}, {"sequence": "NVTAVKALNECF [SKI3 C-terminal 12 aa]", "values": [{"measurement": "protein stability index", "setting": "[1]", "value": "0.6887 ± 0.0054"}, {"measurement": "protein stability index", "setting": "genetic background: wild type", "value": "0.652 ± 0.026"}]}, {"sequence": "SGLIIAEAGIGG [YAL031W-A C-terminal 12 aa]", "values": [{"measurement": "protein stability index", "setting": "[1]", "value": "0.7001 ± 0.005"}, {"measurement": "protein stability index", "setting": "genetic background: wild type", "value": "0.7129 ± 0.0038"}]}, {"sequence": "IEFSMRSLCQGK [CFT1 C-terminal 12 aa]", "values": [{"measurement": "protein stability index", "setting": "[1]", "value": "0.7166 ± 0.0059"}, {"measurement": "protein stability index", "setting": "genetic background: wild type", "value": "0.685 ± 0.038"}]}, {"sequence": "IDEFYECLQDQQ [DCN1 C-terminal 12 aa]", "values": [{"measurement": "protein stability index", "setting": "[1]", "value": "0.704 ± 0.0073"}, {"measurement": "protein stability index", "setting": "genetic background: wild type", "value": "0.721 ± 0.013"}]}, {"sequence": "SPEIDDSSLACH [CTR2 C-terminal 12 aa]", "values": [{"measurement": "protein stability index", "setting": "[1]", "value": "0.707 ± 0.0085"}, {"measurement": "protein stability index", "setting": "genetic background: wild type", "value": "0.6821 ± 0.0044"}]}, {"sequence": "GAGAFAVGALLL [NCW2 C-terminal 12 aa]", "values": [{"measurement": "protein stability index", "setting": "[1]", "value": "0.7034 ± 0.0019"}, {"measurement": "protein stability index", "setting": "genetic background: wild type", "value": "0.687 ± 0.026"}]}, {"sequence": "SKNVPALHMGGL [PBS2 C-terminal 12 aa]", "values": [{"measurement": "protein stability index", "setting": "[1]", "value": "0.6847 ± 0.0027"}, {"measurement": "protein stability index", "setting": "genetic background: wild type", "value": "0.6721 ± 0.0054"}]}, {"sequence": "STDEKRLVMSLK [IMH1 C-terminal 12 aa]", "values": [{"measurement": "protein stability index", "setting": "[1]", "value": "0.692 ± 0.042"}, {"measurement": "protein stability index", "setting": "genetic background: wild type", "value": "0.709 ± 0.014"}]}, {"sequence": "THPAGTLENATQ [YIL102C C-terminal 12 aa]", "values": [{"measurement": "protein stability index", "setting": "[1]", "value": "0.694 ± 0.022"}, {"measurement": "protein stability index", "setting": "genetic background: wild type", "value": "0.742 ± 0.017"}]}, {"sequence": "KAEYLKNCPITQ [RPC40 C-terminal 12 aa]", "values": [{"measurement": "protein stability index", "setting": "[1]", "value": "0.712 ± 0.012"}, {"measurement": "protein stability index", "setting": "genetic background: wild type", "value": "0.719 ± 0.028"}]}, {"sequence": "VPQEDDRLHKLK [AIM3 C-terminal 12 aa]", "values": [{"measurement": "protein stability index", "setting": "[1]", "value": "0.701 ± 0.016"}, {"measurement": "protein stability index", "setting": "genetic background: wild type", "value": "0.765 ± 0.039"}]}, {"sequence": "EDITVQVPDTPT [EST1 C-terminal 12 aa]", "values": [{"measurement": "protein stability index", "setting": "[1]", "value": "0.708 ± 0.017"}, {"measurement": "protein stability index", "setting": "genetic background: wild type", "value": "0.674 ± 0.017"}]}, {"sequence": "FTVKANSQSESA [GRX7 C-terminal 12 aa]", "values": [{"measurement": "protein stability index", "setting": "[1]", "value": "0.6758 ± 0.0034"}, {"measurement": "protein stability index", "setting": "genetic background: wild type", "value": "0.694 ± 0.027"}]}, {"sequence": "TAREKKNEMFSF [YCL023C C-terminal 12 aa]", "values": [{"measurement": "protein stability index", "setting": "[1]", "value": "0.69596 ± 0.00065"}, {"measurement": "protein stability index", "setting": "genetic background: wild type", "value": "0.711 ± 0.06"}]}, {"sequence": "SVLTGGAVWMLF [DFG5 C-terminal 12 aa]", "values": [{"measurement": "protein stability index", "setting": "[1]", "value": "0.7186 ± 0.0037"}, {"measurement": "protein stability index", "setting": "genetic background: wild type", "value": "0.652 ± 0.013"}]}, {"sequence": "MKVLQLGFSWGG [IRC7 C-terminal 12 aa]", "values": [{"measurement": "protein stability index", "setting": "[1]", "value": "0.7148 ± 0.0053"}, {"measurement": "protein stability index", "setting": "genetic background: wild type", "value": "0.6814 ± 0.0067"}]}]}
